Test results taken from patent publication US20200317817A1 (XOMA US, published 2020).
Residue numbers refer to the chain shown, from its start.

T1: mouse PTH1R overexpressed on CHO cells (mouse, UniProt P41593 27-591)
T1 sequence (looked up): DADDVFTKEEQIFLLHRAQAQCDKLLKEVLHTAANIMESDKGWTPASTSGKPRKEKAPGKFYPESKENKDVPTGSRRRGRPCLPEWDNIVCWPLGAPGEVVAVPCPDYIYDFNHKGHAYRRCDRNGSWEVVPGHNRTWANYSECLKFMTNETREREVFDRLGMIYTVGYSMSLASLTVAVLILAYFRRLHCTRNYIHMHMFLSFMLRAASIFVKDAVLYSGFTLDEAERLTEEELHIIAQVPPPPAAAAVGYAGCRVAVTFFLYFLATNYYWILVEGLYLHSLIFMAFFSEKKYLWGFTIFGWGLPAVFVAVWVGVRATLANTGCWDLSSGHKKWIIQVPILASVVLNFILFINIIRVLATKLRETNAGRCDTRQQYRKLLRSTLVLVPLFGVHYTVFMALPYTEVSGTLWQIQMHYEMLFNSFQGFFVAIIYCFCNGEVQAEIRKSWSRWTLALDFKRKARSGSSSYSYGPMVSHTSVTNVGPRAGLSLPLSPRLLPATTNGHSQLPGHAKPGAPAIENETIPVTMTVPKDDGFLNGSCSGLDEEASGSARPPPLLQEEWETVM

T2: human PTH1R overexpressed on CHO cells (human, UniProt Q03431 27-593)
T2 sequence (looked up): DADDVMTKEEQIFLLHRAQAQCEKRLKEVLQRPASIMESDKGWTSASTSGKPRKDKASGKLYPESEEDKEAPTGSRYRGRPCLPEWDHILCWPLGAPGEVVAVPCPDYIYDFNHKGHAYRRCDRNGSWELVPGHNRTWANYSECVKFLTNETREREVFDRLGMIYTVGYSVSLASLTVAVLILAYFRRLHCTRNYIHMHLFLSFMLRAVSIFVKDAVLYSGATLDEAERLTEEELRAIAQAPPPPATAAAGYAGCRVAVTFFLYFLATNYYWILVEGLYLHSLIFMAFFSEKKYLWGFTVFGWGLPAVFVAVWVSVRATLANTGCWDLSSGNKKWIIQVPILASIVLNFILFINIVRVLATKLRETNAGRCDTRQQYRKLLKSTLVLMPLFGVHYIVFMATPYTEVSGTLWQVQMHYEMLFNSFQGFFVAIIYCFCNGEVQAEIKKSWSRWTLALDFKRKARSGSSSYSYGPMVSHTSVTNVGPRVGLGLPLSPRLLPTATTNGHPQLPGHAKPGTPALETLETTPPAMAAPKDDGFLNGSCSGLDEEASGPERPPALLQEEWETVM

T3: human PTH1R on Saos-2 cells (endogenous) (human, UniProt Q03431 27-593)
T3 sequence (looked up): T2 sequence (looked up)

T4: rat PTH1R on UMR106 cells (rat, UniProt P25961 27-591)
T4 sequence (looked up): T1 sequence (looked up) with P58S, L497P, I518T, N520T, I523L, T528A

B1: XPA.85.329 (antibody, V domains shown)
VH: QMQLVQSGAEVKKPGSSVKVSCKASGGTFSSYAISWVRQAPGQGLEWMGGIIPIFGTANYAQKFQGRVTITADESTSTAYMELSSLRSEDTAVYYCARGYVVARLWGQGTLVTVSS
VL: DIVMTQTPLSLSVTPGQPASISCKSSQSLLHIDGLTYLYWYLQKPGQPPQLLIYEVSHRFSGVSDKFSGSGSGTDFTLTISRVEAEDVGVYYCMQSLHLPITFGQGTRLEIK
notes: IgG; also called Ab329; XPA.329
B2: XPA.85.341 (antibody, V domains shown)
VH: EVQLVETGGGVVRPGGSLRLSCAASGFTFSSSAMSWVRQTPGKELQWVSAITPGGEGTYYADVVKGRFTISRDNSKDTLYLQMDSLRAEDTAVYYCARDLYGSYGDAFDIWGQGTLVTVSS
VL: SYELTQPSSVSVSPGQTASITCSGDKLGEKYASWYQQKPGQSPVLVMFEDTKRPSGIPERFSGSNSGNTATLTISGTQAEDEADYYCQAWDSSWVFGGGTQLTVL
notes: Light-chain-shuffled variant of XPA.85.017
B3: XPA.85.287 (antibody, V domains shown)
VH: B2 VH
VL: SYVLTQPPSVSVAPGQTARITCSGDKLGDRYVSWYQQKPGQSPVLVMFEDTGRPAGIPERFSGSNSGNTATLTISGTQAEDEADYYCQAWGTSWVFGGGTQLTVL
notes: also called Ab287
B4: XPA.85.339 (antibody, V domains shown)
VH: B2 VH
VL: SYELTQPPSVSVAPGQTATITCSGDRLGDKFISWYQQKPGQSPLLVIFEDNERPSRIPERFSGSNSGNSATLTISGTQAVDEADYYCQAWDSSWVFGGGTQLTVL
notes: as for B2

How the values were obtained:
[1] = target: T1, mouse PTH1R overexpressed on CHO cells; assay: cell-based or functional assay
[2] = target: T2, human PTH1R overexpressed on CHO cells; assay: cell-based or functional assay
[3] = target: T3, human PTH1R on Saos-2 cells (endogenous); assay: cell-based or functional assay
[4] = target: T1, mouse PTH1R overexpressed on CHO cells; assay: flow cytometry on CHO cells, with 1 uM PTH as competitor
Procedure: (§1) To characterize antibody binding to PTH1R, cells were labeled with either CellTrace™ CFSE or CellTrace™ Violet. Unlabeled CHOK1 parent, CHO human PTH1R labeled with CellTrace™CFSE, and CHO mouse PTH1R labeled with CellTrace™Violet were pooled together and stained with increasing concentrations of antibody. Antibodies were incubated for 24 hr at 4° C. followed by two washes with FACS Buffer (0.5% BSA, 0.1% NaN3 in DPBS). Cells were then incubated with Allophycocyanin (APC) AffiniPure F(ab′)₂ Fragment Goat Anti-Human IgG (H+L) (Jackson ImmunoResearch, West Grove, Pa.) for 20 minutes at 4° C. Followed by two washes, cells were resuspended in FACS Buffer. Samples were acquired using BD Cytometer (BD Biosciences, San Jose, Calif.) and data were analyzed using FlowJo (FlowJo, LLC, Ashland, Oreg.) and Prism (GraphPad Software, La Jolla, Calif.).

[5] = target: T2, human PTH1R overexpressed on CHO cells; assay: as above
Procedure: as §1

[6] = target: T1, mouse PTH1R overexpressed on CHO cells; assay: flow cytometry on CHO cells, 24 hr at 4 C
Procedure: as §1

[7] = target: T2, human PTH1R overexpressed on CHO cells; assay: flow cytometry on CHO cells, 24 hr at 4 C
Procedure: as §1

[8] = target: T4, rat PTH1R on UMR106 cells; assay: cell-based or functional assay
[9] = target: T1, mouse PTH1R overexpressed on CHO cells; assay: flow cytometry on CHO cells, antibody alone
Procedure: as §1

[10] = target: T2, human PTH1R overexpressed on CHO cells; assay: flow cytometry on CHO cells, antibody alone
Procedure: as §1

Binder | IC50, inhibition of PTHrP(1-34)-induced cAMP accumulation [1] | IC50, inhibition of PTH(1-34)-induced cAMP accumulation [2] | IC50, inhibition of PTHrP(1-34)-induced cAMP accumulation [2] | EC50 of antibody, neutralization of M-CSF production induced by 12.5 nM PTHrP (1-36) [3] | fold shift of the PTHrP (1-36) dose response, M-CSF secretion by Saos-2 cells, 40 µg/mL antibody [3] | EC50 [4] | EC50 [5] | EC50 [6] | EC50 [7] | EC50 of PTH(1-34), cAMP assay, with 267 nM IgG [8] | EC50 [9] | EC50 [10] | EC50 of PTHrP(1-34), cAMP assay, with 267 nM IgG [8] | fold-shift in PTH(1-34) EC50 vs vehicle only, cAMP assay [8] | fold-shift in PTHrP(1-34) EC50 vs vehicle only, cAMP assay [8] | fold shift of the PTH (1-34) dose response, M-CSF secretion by Saos-2 cells, 40 µg/mL antibody [3]
B1 | 2.66 nM | 16.6 nM | 6.54 nM | 4 nM | > 200 fold | – | – | – | – | – | – | – | – | – | – | –
B2 | – | – | – | – | – | 0.778 nM | 5.39 nM | 0.343 nM | 0.202 nM | 13.7 nM | 0.337 nM | 0.196 nM | – | – | – | –
B3 | – | – | – | – | – | 0.206 nM | 1.86 nM | 0.216 nM | 0.044 nM | 66.7 nM | 0.281 nM | 0.0909 nM | 11.6 nM | > 100 fold | 35 fold | ~7 fold
B4 | – | – | – | – | – | 0.327 nM | 2.98 nM | 0.234 nM | 0.142 nM | 7.9 nM | 0.258 nM | 0.0984 nM | 3.48 nM | – | – | –
